According to patent publication US20180186890A1 (UNITED STATES OF AMERICA AS REPRESENTED BY THE SECRETARY …, published 2018):

Target: T1, mouse CD276 expressed on the cell surface (mouse, UniProt Q8VE98 29-316)
T1 construct: whole, on cells; also called CHO-msCD276; host CD276 on tumor vasculature of CD276 WT mice
T1 sequence (looked up): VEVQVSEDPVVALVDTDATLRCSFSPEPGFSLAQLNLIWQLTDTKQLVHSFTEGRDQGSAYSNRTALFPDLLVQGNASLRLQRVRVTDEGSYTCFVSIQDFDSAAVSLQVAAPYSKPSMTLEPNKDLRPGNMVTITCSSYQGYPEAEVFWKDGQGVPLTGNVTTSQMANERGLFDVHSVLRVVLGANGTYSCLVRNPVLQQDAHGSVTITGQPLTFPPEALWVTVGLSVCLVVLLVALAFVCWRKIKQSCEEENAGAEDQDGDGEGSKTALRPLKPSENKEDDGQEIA
Assay: immunofluorescence of tumor vasculature after IP injection; no green staining in CD276 KO mice

binding result: binds
B1: FITC-labeled human anti-CD276 antibody m8524 IgG1 (antibody, V domains shown)
VH: QVQLQQSGAEVKKPGSSVKVSCKASGGTFSSYAISWVRQAPGQGLEWMGGIIPILGIANYAQKFQGRVTITADESTSTAYMELSSLRSEDTAVYYCARGGSGSYHMDVWGKGTTVTVSS
VL: EIVLTQSPATLSLSPGERATLSCRASQSVSSYLAWYQQKPGQAPRLLIYDASNRATGIPARFSGSGSGTDFTLTISSLEPEDFAVYYCQQRSNWPPRITFGQGTRLEIK
modifications: FITC-labeled antibody (site not stated)
notes: IgG1; also called anti-CD276 mAb
